Patent US20150031755

Key:
[1] = target: T1, human alpha-CGRP (L-peptide) (Homo sapiens) (UniProt P06881); assay: SPR; conditions: L-RNA; 37 C
T1 sequence: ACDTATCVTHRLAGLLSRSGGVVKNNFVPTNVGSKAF

[2] = test system: T2, rat amylin (L-peptide) (Rattus norvegicus); assay: cell_activity; conditions: L-RNA, L-dC at 41, 5'-40 kDa PEG; cAMP inhibition, MCF-7 cells; p375 prints human amylin for this value but p377 indicates rat amylin
T2 sequence: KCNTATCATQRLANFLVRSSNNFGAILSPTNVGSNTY

| Sequence | Kd [1] [nM] | IC50 [2] [nM] |
| --- | --- | --- |
| CCGUGCUGUCGGAGACUACUCGUCGAGUAGAAAUAGGUCCCCUCCCACGG [226-F2-001 (L)] | 2.62 |  |
| CCGUGCUGUCGGAGACUACUCGUCGAGUAGAAAUAGGUCCCCUCCCACGG [NOX-L41 (226-F2-001-D41-5'-40kDa-PEG)] |  | 283 |
| CGUGCUGUCGGAGACUACUCGUCGAGUAGAAAUAGGUCCCCUCCCACG [212-G1-001 (L)] | 5.12 |  |
